# Results published in article PMC8358021, “Structural basis of the complementary activity of two ketosynthases in aryl polyene biosynthesis” (Scientific Reports, 2021).
# How the values were obtained:
# [1] = biological target: T1, AbApeR (FabB-like homodimeric ketosynthase of the A. baumannii APE gene cluster) (Acinetobacter baumannii); test: ITC; 2.0 mM holo ACP1 or holo ACP2 injected (19 injections of 3 µl) into 0.1 mM AbApeO-AbApeC or AbApeR; 25 °C; 40 mM potassium phosphate pH 7.0; 2 mM 2-mercaptoethanol; details: both partners purified
# T1 construct: ApeR, ketoacyl-ACP synthase I (FabB)-like ketosynthase of the APE biosynthesis gene cluster, Acinetobacter baumannii (pathogenic strain, global clone 2); not shown: His6, N-terminal, cleaved
# [2] = biological target: T2, AbApeO-AbApeC heterodimer (ketosynthase-chain length factor complex of the aryl polyene biosynthesis gene … (Acinetobacter baumannii)); test: as above; details: both partners purified
# T2 construct: ApeO, ketosynthase of the APE biosynthesis gene cluster, Acinetobacter baumannii (pathogenic strain, global clone 2); ApeC, chain length factor of the APE biosynthesis gene cluster, Acinetobacter baumannii (pathogenic strain, global clone 2); The His6 tag on AbApeO is said to be not cleavable; The complex was formed by co-expression and used as one molecule in ITC; also called ApeO-ApeC; …
binder,measurement,setting,value
"holo ACP2 (ApeF), acyl carrier protein 2 of the A. baumannii APE gene cluster (natural protein, 4'-phosphopantetheine (holo form)) MSNLADELKQMIIDVLALEDITIADIDTEAPLFGEGLGLDSIDALELGLALKKRYNIHLNAESDETKQHFKSIQSLVALVEAQQKS",Kd,[1],41 µM
same,stoichiometry N,[1],0.71
same,stoichiometry N,[2],1.21
